Data from article PMC6879491 (Nature Communications, 2019).

Columns and labels:
Assay in all cases: cell-bound Gaussia luciferase activity (equilibrium binding on intact cells); Jurkat (CD3, CD45) or U266 (HLA-A2) cells, 1 h at 37 °C with increasing concentrations of GpL fusion proteins, washed five times with ice-cold PBS; specific binding = total minus non-specific
Details in all cases: partners not purified
HLA-A2 on cells = molecular target: T1, HLA-A2 on cells (Homo sapiens, HLA-A*02:01 (allele …, strain))
T1 construct: HLA-A2 on the surface of HLA-A2-positive human cell lines; source: on THP-1 cells (functional assays)

CD3 on Jurkat cells = molecular target: T2, CD3 on Jurkat cells (Homo sapiens (Jurkat, donor T cells), UniProt P07766)
T2 construct: CD3ε, the chain addressed by the diL2K scFv, on the surface of CD3-positive cells; On cells CD3ε stands within the TCR-CD3 complex; also called CD3ε; CD3 antigen; source: on donor T cells (functional assays)

CD45 on cells = molecular target: T3, CD45 on cells (Homo sapiens (Jurkat, THP-1), UniProt P08575)
T3 construct: CD45 on the surface of human cell lines; also called pan-hematopoietic lineage marker CD45; source: on THP-1 cells (functional assays)
T3 sequence (P08575 26-1306): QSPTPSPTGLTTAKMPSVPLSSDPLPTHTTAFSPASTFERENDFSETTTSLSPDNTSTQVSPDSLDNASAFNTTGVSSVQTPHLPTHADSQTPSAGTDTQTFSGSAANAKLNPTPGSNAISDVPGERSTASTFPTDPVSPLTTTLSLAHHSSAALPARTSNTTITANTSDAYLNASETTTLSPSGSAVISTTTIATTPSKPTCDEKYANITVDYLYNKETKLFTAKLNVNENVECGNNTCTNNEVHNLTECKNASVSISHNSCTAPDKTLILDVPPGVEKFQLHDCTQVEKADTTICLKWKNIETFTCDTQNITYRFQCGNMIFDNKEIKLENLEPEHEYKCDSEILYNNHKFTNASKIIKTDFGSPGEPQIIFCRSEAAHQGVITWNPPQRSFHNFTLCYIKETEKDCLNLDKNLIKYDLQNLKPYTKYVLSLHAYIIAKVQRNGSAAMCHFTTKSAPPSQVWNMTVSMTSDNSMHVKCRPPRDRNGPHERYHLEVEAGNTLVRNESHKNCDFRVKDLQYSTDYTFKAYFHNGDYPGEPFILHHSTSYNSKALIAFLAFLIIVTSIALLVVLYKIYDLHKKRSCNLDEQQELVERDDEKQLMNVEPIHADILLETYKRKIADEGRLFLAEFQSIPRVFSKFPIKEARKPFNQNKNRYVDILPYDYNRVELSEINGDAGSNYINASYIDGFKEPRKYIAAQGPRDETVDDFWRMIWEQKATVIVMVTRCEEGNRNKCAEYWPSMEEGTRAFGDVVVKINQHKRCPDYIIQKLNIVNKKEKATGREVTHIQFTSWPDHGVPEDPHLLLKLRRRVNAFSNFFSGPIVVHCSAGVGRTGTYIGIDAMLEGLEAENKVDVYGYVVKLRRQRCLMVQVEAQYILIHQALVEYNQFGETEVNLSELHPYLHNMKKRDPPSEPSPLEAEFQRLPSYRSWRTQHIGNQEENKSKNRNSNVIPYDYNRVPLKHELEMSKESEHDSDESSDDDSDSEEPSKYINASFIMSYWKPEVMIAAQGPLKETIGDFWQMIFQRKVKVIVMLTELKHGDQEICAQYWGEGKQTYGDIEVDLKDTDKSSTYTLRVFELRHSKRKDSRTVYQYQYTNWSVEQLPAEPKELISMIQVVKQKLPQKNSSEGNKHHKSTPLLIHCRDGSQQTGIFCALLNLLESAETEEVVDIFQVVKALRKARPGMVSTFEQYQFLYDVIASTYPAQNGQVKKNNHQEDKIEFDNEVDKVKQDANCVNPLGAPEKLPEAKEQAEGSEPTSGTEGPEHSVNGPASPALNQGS

B1: scFvαHLA-A2-GpL (scFv, V domains shown)
VH: QVQLVQSGGGVVQPGGSLRVSCAASGVTLSDYGMHWVRQAPGKGLEWMAFIRNDGSDKYYADSVKGRFTISRDNSKKTVSLQMSSLRAEDTAVYYCAKNGESGPLDYWYFDLWGRGTLVTVSS
VL: DVVMTQSPSSLSASVGDRVTITCQASQDISNYLNWYQQKPGKAPKLLIYDASNLETGVPSRFSGSGSGTDFTFTISSLQPEDFATYYCQQYSSFPLTFGGGTKVDIK
notes: scFv of the human anti-HLA-A2/A28 antibody clone 3PF12 (VH GenBank AF163307, VL GenBank AF163308); as the scFv of m1 (GenBank MN432902); Expression plasmid pCR3; also called scFvHLA-A2-GpL; anti-HLA-A2 scFv fused to Gaussia princeps luciferase; source: Hek293, electroporated, secreted, in supernatant
**Q.** With B1 as the binder, how does the Kd (HLA-A2 on cells) read?
**A.** Its Kd is 0.9 nM.

B2: scFvαCD3-GpL (scFv, V domains shown)
VH: DVQLVQSGAEVKKPGASVKVSCKASGYTFTRYTMHWVRQAPGQGLEWIGYINPSRGYTNYADSVKGRFTITTDKSTSTAYMELSSLRSEDTATYYCARYYDDHYCLDYWGQGTTVTVSS
VL: DIVLTQSPATLSLSPGERATLSCRASQSVSYMNWYQQKPGKAPKRWIYDTSKVASGVPARFSGSGSGTDYSLTINSLEAEDAATYYCQQWSSNPLTFGGGTKVEIK
notes: scFv of the anti-CD3ε antibody diL2K (de-immunized version of mouse monoclonal L2K); as the anti-CD3 scFv of m3 (GenBank MN432903); Expression plasmid pCR3; also called scFvCD3-GpL; anti-CD3 scFv fused to Gaussia princeps luciferase; source: Hek293, electroporated, secreted, in supernatant
**Q.** For B2, which Kd (CD3 on Jurkat cells) is on record?
**A.** Its Kd is 11.1 nM.

B3: scFvαCD45-GpL (scFv, V domains shown)
VH: QVQLVESGGGLVQPGGSLKLSCAASGFDFSRYWMSWVRQAPGKGLEWIGEINPTSSTINFTPSLKDKVFISRDNAKNTLYLQMSKVRSEDTALYYCARGNYYRYGDAMDYWGQGTSVTVSG
VL: DIVLTQSPASLAVSLGQRATISCRASKSVSTSGYSYLHWYQQKPGQPPKLLIYLASNLESGVPARFSGSGSGTDFTLNIHPVEEEDAATYYCQHSRELPFTFGSGTKLEIK
notes: as the scFv of m2 (GenBank MN432904); Expression plasmid pCR3; also called scFvCD45-GpL; anti-CD45 scFv fused to Gaussia princeps luciferase; source: Hek293, electroporated, secreted, in supernatant
**Q.** With B3 as the binder, how does the Kd (CD45 on cells) read?
**A.** The Kd was 11.8 nM.
